Measurements taken from patent US20050037449.

How the values were obtained:
[1] = target: human BMAL1 expressed in E. coli as an N-terminal GST fusion protein [GST: P08515]
[2] = target: T1, c-Jun (1-79) expressed in E. coli as an N-terminal GST fusion protein, P05412
T1 chain: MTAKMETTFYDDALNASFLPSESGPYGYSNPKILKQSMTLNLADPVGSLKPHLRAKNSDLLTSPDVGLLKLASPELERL

[3] = target: glutathion S-transferase (GST) [GST: P08515]

B1: mouse ERK2 (New England Biolabs) (protein)
chain: MAAAAAAGPEMVRGQVFDVGPRYTNLSYIGEGAYGMVCSAYDNLNKVRVAIKKISPFEHQTYCQRTLREIKILLRFRHENIIGINDIIRAPTIEQMKDVYIVQDLMETDLYKLLKTQHLSNDHICYFLYQILRGLKYIHSANVLHRDLKPSNLLLNTTCDLKICDFGLARVADPDHDHTGFLTEYVATRWYRAPEIMLNSKGYTKSIDIWSVGCILAEMLSNRPIFPGKHYLDQLNHILGILGSPSQEDLNCIINLKARNYLLSLPHKNKVPWNRLFPNADSKALDLLDKMLTFNPHKRIEVEQALAHPYLEQYYDPSDEPIAEAPFKFDMELDDLPKEKLKELIFEETARFQPGYRS
in vitro phosphorylation, ERK2 added instead of JNK3 [1]: substantially not phosphorylated by any of JNK1 and JNK2 (which are members of the JNK family), and ERK2

B2: active form of human JNK3 (JNK3 α1) expressed as an N-terminal His-tagged protein (protein)
chain: MSLHFLYYCSEPTLDVKIAFCQGFDKQVDVSYIAKHYNMSKSKVDNQFYSVEVGDSTFTVLKRYQNLKPIGSGAQGIVCAAYDAVLDRNVAIKKLSRPFQNQTHAKRAYRELVLMKCVNHKNIISLLNVFTPQKTLEEFQDVYLVMELMDANLCQVIQMELDHERMSYLLYQMLCGIKHLHSAGIIHRDLKPSNIVVKSDCTLKILDFGLARTAGTSFMMTPYVVTRYYRAPEVILGMGYKENVDIWSVGCIMGEMVRHKILFPGRDYIDQWNKVIEQLGTPCPEFMKKLQPTVRNYVENRPKYAGLTFPKLFPDSLFPADSEHNKLKASQARDLLSKMLVIDPAKRISVDDALQHPYINVWYDPAEVEAPPPQIYDKQLDEREHTIEEWKELIYKEVMNSEEKTKNGVVKGQPSPSAQVQQ
in vitro phosphorylation ([γ-32P]ATP kinase assay, SDS-PAGE, autoradiography) [2]: JNK3 did phosphorylate the GST-c-Jun (1-79) used as a positive control
in vitro phosphorylation ([γ-32P]ATP kinase assay, SDS-PAGE, autoradiography) [3]: did not phosphorylate the GST
in vitro phosphorylation ([γ-32P]ATP kinase assay, SDS-PAGE, autoradiography) [1]: The phosphorylation of GST-BMAL1 was observed in this experimental system
in vitro phosphorylation with 0 ng, 14 ng, 28 ng and 70 ng of active JNK3 [1]: GST-BMAL1 was phosphorylated in a JNK3 dose-dependent manner

B3: human JNK1 (Upstate Biotechnology) (protein)
chain: MSRSKRDNNFYSVEIGDSTFTVLKRYQNLKPIGSGAQGIVCAAYDAILERNVAIKKLSRPFQNQTHAKRAYRELVLMKCVNHKNIIGLLNVFTPQKSLEEFQDVYIVMELMDANLCQVIQMELDHERMSYLLYQMLCGIKHLHSAGIIHRDLKPSNIVVKSDCTLKILDFGLARTAGTSFMMTPYVVTRYYRAPEVILGMGYKENVDLWSVGCIMGEMVCHKILFPGRDYIDQWNKVIEQLGTPCPEFMKKLQPTVRTYVENRPKYAGYSFEKLFPDVLFPADSEHNKLKASQARDLLSKMLVIDASKRISVDEALQHPYINVWYDPSEAEAPPPKIPDKQLDEREHTIEEWKELIYKEVMDLEERTKNGVIRGQPSPLAQVQQ
in vitro phosphorylation, JNK1 added instead of JNK3 [1]: substantially not phosphorylated by any of JNK1 and JNK2 (which are members of the JNK family), and ERK2

B4: human JNK2 (Upstate Biotechnology) (protein)
chain: MSDSKCDSQFYSVQVADSTFTVLKRYQQLKPIGSGAQGIVCAAFDTVLGINVAVKKLSRPFQNQTHAKRAYRELVLLKCVNHKNIISLLNVFTPQKTLEEFQDVYLVMELMDANLCQVIHMELDHERMSYLLYQMLCGIKHLHSAGIIHRDLKPSNIVVKSDCTLKILDFGLARTACTNFMMTPYVVTRYYRAPEVILGMGYKENVDIWSVGCIMGELVKGCVIFQGTDHIDQWNKVIEQLGTPSAEFMKKLQPTVRNYVENRPKYPGIKFEELFPDWIFPSESERDKIKTSQARDLLSKMLVIDPDKRISVDEALRHPYITVWYDPAEAEAPPPQIYDAQLEEREHAIEEWKELIYKEVMDWEERSKNGVVKDQPSDAAVSSNATPSQSSSINDISSMSTEQTLASDTDSSLDASTGPLEGCR
in vitro phosphorylation, JNK2 added instead of JNK3 [1]: substantially not phosphorylated by any of JNK1 and JNK2 (which are members of the JNK family), and ERK2
